Source: US20250011413A1 (MCMASTER UNIVERSITY, published 2025)
“And” between values parts separate entries of the source, which are not always exact repeats. Equal values may be shown once.

Key:
[1] = biological target: T1, PF4/heparin complex (human PF4 complexed with heparin) (human, UniProt P02776 32-101); experiment: BLI (Octet), biotinylated PF4/heparin on streptavidin sensors, scFv 1 µg/mL, 1:1 model
T1 construct: Multimeric complex of PF4 with heparin (not a protein); In the EIAs: PF4 captured on biotinylated heparin on streptavidin plates; In the SRA: platelets with 0.2 U/mL heparin; also called PF4 and heparin complexes
T1 sequence: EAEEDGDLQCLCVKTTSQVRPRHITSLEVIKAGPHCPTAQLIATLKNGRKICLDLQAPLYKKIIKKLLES
Procedure: (§1) The Octet-QK Red 96 (FortéBio, Menlo Park, CA) instrumentation was used to conduct all BLI experiments. A 96-well microtiter plate (black, flat-bottom) was used to hold 200 μL per well of either sample or buffer. Pre-coated streptavidin biosensor tips (FortéBio) were hydrated in phosphate buffered saline (PBS) containing 1% bovine serum albumin (BSA, Sigma-Aldrich) before performing all kinetic assays. Each step was performed at an operating temperature of 23° C. with agitation at 1000 rpm. Streptavidin tips were first equilibrated in PBS+1% BSA to establish a baseline. […] The PF4-coated tips were then dipped into PBS+1% BSA for 13 minutes to re-establish a baseline. Tips were then incubated in an analyte solution containing half-fold dilutions of wildtype scFv (4.0, 2.0, 1.0, 0.5, 0.25 μg/mL in PBS+1% BSA) for 10 minutes to measure association. For mutant scFv association, tips were incubated in an analyte solution containing 200 μL of each mutant and wildtype scFv at a final concentration of 1 μg/mL in PBS+1% BSA. Antibody dissociation steps were performed by dipping sensors in wells containing PBS+1% BSA for 56 minutes. The following negative controls included in these kinetic experiments were also measured: 200 μL of buffer to replace both the antigen and scFv and 200 μL buffer replacing scFv only. Each experiment was performed with PF4 or with PF4/heparin as the immobilized antigen.
(§2) BLI experiments were performed to evaluate binding responses and affinities of wildtype and mutant scFv. Biotinylated PF4 alone or complexed with heparin was immobilized on streptavidin biosensors and used to capture wildtype scFv. Half-fold serial dilutions of wildtype scFv ranging from 0.25 μg/mL to 4 μg/mL were used to determine the optimal concentrations for future experiments PF4 (PF4 FIG. 3; PF4/heparin FIG. 4).

[2] = biological target: T2, Human PF4 (CXCL4), biotinylated, without heparin (human, UniProt P02776 32-101, biotinylated with EZ-link-Sulfo-NHS-LC-Biotin (sites not given)); experiment: BLI (Octet), biotinylated PF4 without heparin on streptavidin sensors, scFv 1 µg/mL, 1:1 model
T2 construct: Immobilised on streptavidin biosensors for BLI; also called PF4 alone; platelet factor 4
T2 sequence: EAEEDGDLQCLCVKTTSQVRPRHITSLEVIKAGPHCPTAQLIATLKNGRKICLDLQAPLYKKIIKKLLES
Procedure: as §1, §2

[3] = biological target: T2, Human PF4 (CXCL4), biotinylated, …; experiment: BLI (Octet), biotinylated PF4 without heparin on streptavidin sensors, scFv at 1 µg/mL, 1:1 model, mean ± s.d. [cont.) b]
Procedure: BLI experiments were performed using wildtype scFv, mutant B, mutant C, mutant D, mutant E, and mutant F at 1 μg/mL. Binding was measured against immobilized biotinylated PF4 on streptavidin biosensors. b) Table showing kinetic data of wildtype and mutant scFv, including binding responses and association and dissociation rates. All data was analyzed based on a 1:1 homogenous ligand binding model using Octet® User Software version 3.1.
as §1
BLI experiments were performed to evaluate binding responses and affinities of wildtype and mutant scFv. Biotinylated PF4 alone or complexed with heparin was immobilized on streptavidin biosensors and used to capture wildtype scFv.

[4] = biological target: T1, PF4/heparin complex (human PF4 …); experiment: competition EIA, scFv 50 µg/mL; competitor HIT-negative sera antibodies, n=10
[5] = biological target: T1, PF4/heparin complex (human PF4 …); experiment: BLI (Octet), biotinylated PF4/heparin on streptavidin sensors, scFv 1 µg/mL
Procedure: as §1, §2

[6] = biological target: T1, PF4/heparin complex (human PF4 …); experiment: cell-based or functional assay
[7] = biological target: T1, PF4/heparin complex (human PF4 …); experiment: competition EIA on PF4/biotinylated heparin, scFv 0-160 µg/mL; competitor full-length KKO 2 µg/mL
Procedure: Inhibitory PF4/heparin IgG-specific Streptavidin Enzyme Immunoassay (EIA). The binding activity of wildtype and mutant scFv antibodies to PF4/heparin complexes was measured using an inhibitory PF4/heparin IgG-specific EIA with a streptavidin-biotin capture system. Before performing this protocol, 96-well NUNC Maxisorp plates (ThermoFisher) were coated with 10 μg/mL streptavidin for 24 h. Plates were then blocked with 3% bovine serum albumin (BSA) in phosphate buffered saline (PBS) for 2 h at room temperature. Plates were then coated with 1 U/mL biotinylated-heparin for 1 h followed by 30 μg/mL PF4 for 1 h. Increasing concentrations of wildtype or mutant scFv were added and incubated for 1 hr at room temperature. Without removing wildtype or scFv, HIT patient sera in a 1:50 dilution or full-length KKO (2 μg/mL) was then incubated for 1 h at room temperature. After washing, alkaline phosphatase-conjugated anti-human or anti-mouse IgG (Jackson Immuno Research Laboratories, Inc., West Grove, PA) was added at a 1:4000 dilution and incubated for 1 h temperature. For detection, 1 mg/mL p-nitrophenylphosphate (PNPP, Sigma-Aldrich) substrate dissolved in 1 mol/L diethanolamine (DEA) buffer (pH 9.6) was added. The optical density (OD) was measured at 2 min intervals for 30 min at 405 nm (OD₄₀₅ₙₘ) using a BioTek 800 TS plate reader (BioTek Instruments Inc., Winooski, VT) to determine if anti-PF4/heparin antibody binding was inhibited. Results were reported as a decrease in OD (absorbance at 405 nm) from baseline levels.
To further evaluate the binding of mutant and wildtype scFv, their ability to inhibit full-length KKO from binding PF4/heparin complexes was assessed in a modified streptavidin-capture EIA. Biotinylated heparin was immobilized with PF4 on streptavidin-coated plates and incubated with KKO in the presence of scFv at half-fold serial dilutions from 0 to 160 μg/mL. […] Wildtype scFv and mutant C were unable to inhibit full-length KKO binding at these concentrations and IC50 values for these constructs were not calculated.

B1: Wildtype scFv (KKO-derived single chain variable fragment) (scFv)
scFv: DIQMIQSQKFMSTSVGDRVTVTCKASQNVGTNVAWYQQKPGQSPNALIYSASYRYSGVPDRFTGSGSGTDFTLTITNVQSEDLADYFCQQYNSYPLTFGTGTKLDLKGGGGSGGGGSGGGGSVQLQQSGAELVKPGASVKLSCKASGYTFTNYFIYWVKQRPGQGLEWIGEINPRNGDTDFNEKFESRATLTVDKSSSTAYMQLSSLTSEDSAIYYCTRSPYGNNYGFTYWGQGTLVTVSA
notes: VL-(G4S)3 linker-VH; expressed in E. coli BL21 from pADL-22c, purified on Ni-NTA as histidine-tagged scFv, about 28 kDa; also called WT; KKO-scFv; not shown: histidine tag from the pADL-22c vector
Work on B1 yielded a Kd [1] of 5.38 nM, a Kd [2] of 1320 nM and a koff [3] of 0.00255 s⁻¹. For the same binder, the kon [3] was 12500 M⁻¹ s⁻¹, the “mean % inhibition of serum antibody binding” value [4] was -38.3% and the “average binding response (wavelength shift)” value [5] was 0.0758 nm. For the same binder, the “% inhibition of 14C-serotonin release (SRA), HIT-Positive Patient #1 serum, scFv 50 µg/mL” value [6] was 15.6%, the “% inhibition of 14C-serotonin release (SRA), HIT-Positive Patient #1 serum, scFv 75 µg/mL” value [6] was 17.8% and the “% inhibition of 14C-serotonin release (SRA), HIT-Positive Patient #2 serum, scFv 50 µg/mL” value [6] was 37.2%. For the same binder, the “% inhibition of 14C-serotonin release (SRA), HIT-Positive Patient #2 serum, scFv 75 µg/mL” value [6] was 15.4%, the “% inhibition of 14C-serotonin release (SRA), HIT-Positive Patient #3 serum, scFv 50 µg/mL” value [6] was 4.8% and the “% inhibition of 14C-serotonin release (SRA), HIT-Positive Patient #3 serum, scFv 75 µg/mL” value [6] was 12%. For the same binder, the “% inhibition of 14C-serotonin release (SRA), HIT-Positive Patient #4 serum, scFv 50 µg/mL” value [6] was 6.7%, the “% inhibition of 14C-serotonin release (SRA), HIT-Positive Patient #4 serum, scFv 75 µg/mL” value [6] was 4.4% and the “% inhibition of 14C-serotonin release (SRA), HIT-Positive Patient #5 serum, scFv 50 µg/mL” value [6] was -6.9%. The “% inhibition of 14C-serotonin release (SRA), HIT-Positive Patient #5 serum, scFv 75 µg/mL” value [6] was 20.8%.

B2: Mutant D scFv, scFv(Y156H) (scFv)
scFv: DIQMIQSQKFMSTSVGDRVTVTCKASQNVGTNVAWYQQKPGQSPNALIYSASYRYSGVPDRFTGSGSGTDFTLTITNVQSEDLADYFCQQYNSYPLTFGTGTKLDLKGGGGSGGGGSGGGGSVQLQQSGAELVKPGASVKLSCKASGYTFTNYFIHWVKQRPGQGLEWIGEINPRNGDTDFNEKFESRATLTVDKSSSTAYMQLSSLTSEDSAIYYCTRSPYGNNYGFTYWGQGTLVTVSA
notes: VL-linker-VH; histidine-tagged, from E. coli BL21; also called Mut D; not shown: histidine tag from the pADL-22c vector
B2 was tested, and the Kd [1] was 3.77 nM, the “fold stronger affinity than wildtype scFv” value [1] was 100 fold and the Kd [2] was 5.83 nM. The “fold stronger affinity than wildtype scFv” value [2] was 1000 fold, the koff [3] was 0.000103 s⁻¹ and the kon [3] was 25700 M⁻¹ s⁻¹. The IC50 [7] was 111 nM and 3.1 µg/mL, the “mean % inhibition of serum antibody binding” value [4] was -17.3% and the “average binding response (wavelength shift)” value [5] was 0.133 nm. For the same binder, the “fold higher binding response than wildtype scFv” value [5] was ≥ 3 fold, the “% inhibition of 14C-serotonin release (SRA), HIT-Positive Patient #1 serum, scFv 50 µg/mL” value [6] was 42.2% and the “% inhibition of 14C-serotonin release (SRA), HIT-Positive Patient #1 serum, scFv 75 µg/mL” value [6] was 94.4%. For the same binder, the “% inhibition of 14C-serotonin release (SRA), HIT-Positive Patient #2 serum, scFv 50 µg/mL” value [6] was 12.8%, the “% inhibition of 14C-serotonin release (SRA), HIT-Positive Patient #2 serum, scFv 75 µg/mL” value [6] was 16.7% and the “% inhibition of 14C-serotonin release (SRA), HIT-Positive Patient #3 serum, scFv 50 µg/mL” value [6] was 10.8%. For the same binder, the “% inhibition of 14C-serotonin release (SRA), HIT-Positive Patient #3 serum, scFv 75 µg/mL” value [6] was 36.1%, the “% inhibition of 14C-serotonin release (SRA), HIT-Positive Patient #4 serum, scFv 50 µg/mL” value [6] was 20% and the “% inhibition of 14C-serotonin release (SRA), HIT-Positive Patient #4 serum, scFv 75 µg/mL” value [6] was 38.9%. The “% inhibition of 14C-serotonin release (SRA), HIT-Positive Patient #5 serum, scFv 50 µg/mL” value [6] was 69.4% and the “% inhibition of 14C-serotonin release (SRA), HIT-Positive Patient #5 serum, scFv 75 µg/mL” value [6] was 87.5%.
